Reference: patent publication US20240025978A1 (BIOVERATIV USA, published 2024)

Target: T1, activated human complement C1s (Homo sapiens, UniProt P09871 16-688)
T1 sequence: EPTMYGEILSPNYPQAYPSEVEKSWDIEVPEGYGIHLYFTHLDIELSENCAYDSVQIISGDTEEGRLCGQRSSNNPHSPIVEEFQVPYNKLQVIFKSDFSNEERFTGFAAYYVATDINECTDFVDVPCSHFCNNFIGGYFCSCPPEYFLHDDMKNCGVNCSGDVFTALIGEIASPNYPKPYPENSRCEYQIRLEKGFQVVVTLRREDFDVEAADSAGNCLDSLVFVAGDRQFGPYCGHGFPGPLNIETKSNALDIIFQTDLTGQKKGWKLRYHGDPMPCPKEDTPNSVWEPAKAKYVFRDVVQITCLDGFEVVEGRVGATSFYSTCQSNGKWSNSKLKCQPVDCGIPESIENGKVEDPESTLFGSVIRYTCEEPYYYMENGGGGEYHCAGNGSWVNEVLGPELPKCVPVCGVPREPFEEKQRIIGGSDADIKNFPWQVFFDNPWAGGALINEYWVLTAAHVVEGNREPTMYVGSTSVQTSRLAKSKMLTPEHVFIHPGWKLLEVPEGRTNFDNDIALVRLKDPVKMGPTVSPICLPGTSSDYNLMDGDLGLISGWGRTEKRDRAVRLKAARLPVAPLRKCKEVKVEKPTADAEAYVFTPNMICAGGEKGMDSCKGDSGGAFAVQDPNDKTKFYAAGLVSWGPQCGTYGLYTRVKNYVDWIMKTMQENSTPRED
Assay: cell-based or functional assay

B1: SAR445088 (antibody, human IgG4 S228P, kappa, V domains shown)
VH: QVQLVQSGAEVKKPGASVKLSCTASGFNIKDDYIHWVKQAPGQGLEWIGRIDPADGHTKYAPKFQVKVTITADTSTSTAYLELSSLRSEDTAVYYCARYGYGREVFDYWGQGTTVTVSS
VL: DIVLTQSPDSLAVSLGERATISCKASQSVDYDGDSYMNWYQQKPGQPPKILIYDASNLESGIPARFSGSGSGTDFTLTISSLEPEDFAIYYCQQSNEDPWTFGGGTKVEIKR
CH50 (50% hemolytic complement activity, liposome-based assay), population PK/PD model, typical IC50: 16.6 µg/mL | percent CP (Wieslab classical pathway assay), population PK/PD model, typical IC50: 96.4 µg/mL
